Each block holds one binder with its values, some of them ahead of it.
Tests used:
Details in all cases: one partner purified
[1] = target: T1, mouse C-C motif chemokine receptor-like 2 (CCRL2) isoform b, on HEK-muCCRL2 cells (mouse, UniProt O35457 1-360); test: flow cytometry on cells; competition: HEK-huCCRL2 or HEK-muCCRL2 cells incubated with serially diluted unlabeled competitor at 4°C 45 min, then 10 nM biotin-labeled chemerin at 4°C 45 min, RRX-streptavidin; IC50 from four-parameter fit
T1 construct: C-C motif chemokine receptor-like 2 (CCRL2), mouse, printed as isoform b, codon optimized cDNA; also called murine CCRL2
T1 sequence (looked up): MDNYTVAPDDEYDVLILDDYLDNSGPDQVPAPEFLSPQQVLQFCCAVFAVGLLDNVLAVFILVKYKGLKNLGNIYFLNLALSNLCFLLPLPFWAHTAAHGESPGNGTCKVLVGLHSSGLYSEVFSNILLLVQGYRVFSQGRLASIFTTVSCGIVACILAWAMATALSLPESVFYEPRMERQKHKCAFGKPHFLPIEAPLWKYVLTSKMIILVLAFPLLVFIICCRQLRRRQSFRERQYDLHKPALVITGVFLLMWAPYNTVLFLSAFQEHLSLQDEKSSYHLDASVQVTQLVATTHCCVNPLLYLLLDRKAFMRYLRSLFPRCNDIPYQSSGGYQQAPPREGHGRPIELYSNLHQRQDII

[2] = target: T1, mouse C-C motif chemokine receptor-like …; test: flow cytometry on cells; serially diluted biotin-labeled ligand on HEK-huCCRL2, HEK-muCCRL2 or parental HEK cells (2x10^4 cells/well, 384-well), PBS + 0.1% BSA, 4°C 45 min, detected with RRX-streptavidin; MFI normalized to parental HEK cell binding; EC50 from four-parameter fit
[3] = target: T2, human C-C motif chemokine receptor-like 2 (CCRL2) isoform b, on HEK-huCCRL2 cells (human, UniProt O00421 1-344); test: SPR; live-cell SPR microscopy (SPRm 200); HEK-huCCRL2 cells seeded on collagen-coated gold slides; analyte injected at 150 ul/min, contact 3 min, dissociation 5 min; running buffer PBS + 0.1% BSA; chemerin 10-400 nM; 1:1 binding model; n = 3
T2 construct: C-C motif chemokine receptor-like 2 (CCRL2), human, isoform b, codon optimized cDNA; No tag is mentioned for the construct; also called human CCRL2
T2 sequence (looked up): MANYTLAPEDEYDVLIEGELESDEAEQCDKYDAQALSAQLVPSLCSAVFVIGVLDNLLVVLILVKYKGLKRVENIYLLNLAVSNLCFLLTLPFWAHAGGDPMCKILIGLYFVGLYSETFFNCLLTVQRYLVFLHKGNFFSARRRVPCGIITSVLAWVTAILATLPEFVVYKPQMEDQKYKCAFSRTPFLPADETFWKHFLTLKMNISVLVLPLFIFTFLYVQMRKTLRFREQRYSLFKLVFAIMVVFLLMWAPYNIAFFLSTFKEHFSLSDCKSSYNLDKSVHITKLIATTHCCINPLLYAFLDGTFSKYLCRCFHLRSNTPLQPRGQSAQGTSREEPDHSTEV

[4] = target: T2, human C-C motif chemokine receptor-like …; test: flow cytometry on cells; serially diluted biotin-labeled ligand on HEK-huCCRL2, HEK-muCCRL2 or parental HEK cells (2x10^4 cells/well, 384-well), PBS + 0.1% BSA, 4°C 45 min, detected with RRX-streptavidin; MFI normalized to parental HEK cell binding; EC50 from four-parameter fit
[5] = target: T2, human C-C motif chemokine receptor-like …; test: flow cytometry on cells; competition: HEK-huCCRL2 or HEK-muCCRL2 cells incubated with serially diluted unlabeled competitor at 4°C 45 min, then 10 nM biotin-labeled chemerin at 4°C 45 min, RRX-streptavidin; IC50 from four-parameter fit

- IC50 [1]: 21.1 nM
B1: recombinant active mouse chemerin (residues 21-156), unlabeled (ligand, UniProt Q9DD06 21-156, looked up)
chain: EPELSETQRRSLQVALEEFHKHPPVQLAFQEIGVDRAEEVLFSAGTFVRLEFKLQQTNCPKKDWKKPECTIKPNGRRRKCLACIKMDPKGKILGRIVHCPILKQGPQDPQELQCIKIAQAGEDPHGYFLPGQFAFS
notes: active mouse chemerin, Uniprot entry Q9DD06, residues 21-156; Construct is named hIgG1 monovalent Fc-TEV-chemerin; also called murine chemerin; unlabeled murine chemerin; source: HEK 293F, transient, purified (Protein A, TEV cleavage, Protein A and Ni-NTA removal, Superdex 75 SEC); not shown: Fc (human IgG1, monovalent) with TEV site, N-terminal, cleaved

- EC50 [2]: 143 nM
B2: biotin-labeled recombinant active mouse chemerin (residues 21-156) (ligand, UniProt Q9DD06 21-156, looked up)
chain: B1 chain
modifications: biotin (EZ-Link Sulfo-NHS-LC-Biotin, biotin-to-analyte molar ratio 5:1; any reactive primary amine)
notes: active mouse chemerin, Uniprot entry Q9DD06, residues 21-156; also called biotinylated murine chemerin; biotin-labeled murine chemerin; not shown: Fc (human IgG1, monovalent) with TEV site, N-terminal, cleaved

- Kd [3]: 8.55 nM
- koff [3]: 0.00184 s⁻¹
- kon [3]: 297000 M⁻¹ s⁻¹
- EC50 [4]: 4.2 nM
B3: biotin-labeled recombinant active human chemerin (residues 21-157) (ligand, UniProt Q99969 21-157, looked up)
chain: ELTEAQRRGLQVALEEFHKHPPVQWAFQETSVESAVDTPFPAGIFVRLEFKLQQTSCRKRDWKKPECKVRPNGRKRKCLACIKLGSEDKVLGRLVHCPIETQVLREAEEHQETQCLRVQRAGEDPHSFYFPGQFAFS
modifications: biotin (EZ-Link Sulfo-NHS-LC-Biotin, biotin-to-analyte molar ratio 5:1; any reactive primary amine)
notes: active human chemerin, Uniprot entry Q99969, residues 21-157; also called Biotin-chemerin; biotinylated chemerin; not shown: Fc (human IgG1, monovalent) with TEV site, N-terminal, cleaved

- Kd [3]: 5.49 nM
- koff [3]: 0.00116 s⁻¹
- kon [3]: 311000 M⁻¹ s⁻¹
- IC50 [5]: 7.55 nM
B4: recombinant active human chemerin (residues 21-157), unlabeled (ligand, UniProt Q99969 21-157, looked up)
chain: B3 chain
notes: active human chemerin, Uniprot entry Q99969, residues 21-157; Construct is named hIgG1 monovalent Fc-TEV-chemerin; also called label-free chemerin; unlabeled chemerin; source: HEK 293F, transient, purified (Protein A, TEV cleavage, Protein A and Ni-NTA removal, Superdex 75 SEC); not shown: Fc (human IgG1, monovalent) with TEV site, N-terminal, cleaved

From paper PMC9858354, “Studies with neutralizing antibodies suggest CXCL8-mediated neutrophil activation is independent of C-C motif chemokine receptor-like 2 (CCRL2) ligand binding function” (PLOS ONE, 2023)
